Measurements published in US20090111753A1, “Nogo-A Polypeptide Fragments, Variant Nogo Receptor-1 Polypeptides, and Uses Thereof” (Yale University, priority 2004, published 2009).
Where a chain is given by its changes, count along the chain named.

T1: AP-B4C (Homo sapiens, UniProt Q9NQC3)
T1 construct: a.a; 950-1018 (AmNg B4C); made in house; host or cells: AP ligand: HEK293T conditioned medium; NgR mutants: COS-7
T1 sequence (Q9NQC3 950-1018): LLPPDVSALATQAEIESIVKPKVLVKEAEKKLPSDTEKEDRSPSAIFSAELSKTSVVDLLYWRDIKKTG

T2: AP-Lingo-1 (Homo sapiens, UniProt Q96FE5)
T2 construct: made in house; NgR mutants: COS-7
T2 sequence (Q96FE5 40-538 limits assumed): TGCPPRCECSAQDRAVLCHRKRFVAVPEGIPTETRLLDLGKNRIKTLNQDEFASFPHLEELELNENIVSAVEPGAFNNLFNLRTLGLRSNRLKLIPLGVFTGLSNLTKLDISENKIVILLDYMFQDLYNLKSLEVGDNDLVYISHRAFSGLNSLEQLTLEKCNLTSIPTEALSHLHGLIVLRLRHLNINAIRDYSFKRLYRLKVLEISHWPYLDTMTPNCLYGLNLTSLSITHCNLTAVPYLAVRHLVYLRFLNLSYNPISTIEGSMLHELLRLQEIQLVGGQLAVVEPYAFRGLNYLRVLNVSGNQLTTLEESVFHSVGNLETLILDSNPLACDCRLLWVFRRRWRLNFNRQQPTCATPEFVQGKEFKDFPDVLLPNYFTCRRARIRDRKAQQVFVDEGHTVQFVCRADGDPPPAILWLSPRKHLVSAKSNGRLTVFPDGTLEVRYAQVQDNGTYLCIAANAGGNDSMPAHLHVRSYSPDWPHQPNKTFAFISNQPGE

T3: AP-Nogo66 (Homo sapiens, UniProt Q9NQC3)
T3 construct: made in house; NgR mutants: COS-7
T3 sequence (Q9NQC3 1055-1120 limits assumed): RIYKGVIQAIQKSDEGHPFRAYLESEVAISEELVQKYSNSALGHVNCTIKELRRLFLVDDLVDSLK

B1: 256, 259: human NgR1 mutant, listed residues mutated to alanine (protein)
chain: CPGACVCYNEPKVTTSCPQQGLQAVPVGIPAASQRIFLHGNRISHVPAASFRACRNLTILWLHSNVLARIDAAAFTGLALLEQLDLSDNAQLRSVDPATFHGLGRLHTLHLDRCGLQELGPGLFRGLAALQYLYLQDNALQALPDDTFRDLGNLTHLFLHGNRISSVPERAFRGLHSLDRLLLHQNRVAHVHPHAFRDLGRLMTLYLFANNLSALPTEALAPLRALQYLALNANPWVCDCRARPLWAWLQKFRGSSSEVPCSLPQRLAGRDLKRLAANDLQGCAVATGPYHPIWTGRATDEEPLGLPKCCQPDAADKASVLEPGRPASAGNALKGRVPPGDSPPGNGSGPRHINDSPFGTLPGSAEPPLTAVRPEGSEPPGFPTSGPRRRPGCSRKNRTRSHCRLGQAGSGGGGTGDSEGSGALPSLTCSLTPLGLALVLWTVLGPC
B2: 36, 38, 61: human NgR1 mutant, listed residues mutated to alanine (protein)
chain: B1 chain with E10A, K12A, R35A, A230R, A233D
B3: 95, 97, 122: human NgR1 mutant, listed residues mutated to alanine (protein)
chain: B1 chain with R69A, D71A, D96A, A230R, A233D
B4: 114, 117, 139: human NgR1 mutant, listed residues mutated to alanine (protein)
chain: B1 chain with D88A, Q91A, R113A, A230R, A233D
B5: 117, 119, 120: human NgR1 mutant, listed residues mutated to alanine (protein)
chain: B1 chain with Q91A, R93A, S94A, A230R, A233D
B6: 78, 81: human NgR1 mutant, listed residues mutated to alanine (protein)
chain: B1 chain with R52A, R55A, A230R, A233D
B7: WT: wild type human NgR1 expressed in COS-7 cells (protein, UniProt Q9BZR6 27-447, looked up)
Reticulon-4 receptor: CPGACVCYNEPKVTTSCPQQGLQAVPVGIPAASQRIFLHGNRISHVPAASFRACRNLTILWLHSNVLARIDAAAFTGLALLEQLDLSDNAQLRSVDPATFHGLGRLHTLHLDRCGLQELGPGLFRGLAALQYLYLQDNALQALPDDTFRDLGNLTHLFLHGNRISSVPERAFRGLHSLDRLLLHQNRVAHVHPHAFRDLGRLMTLYLFANNLSALPTEALAPLRALQYLRLNDNPWVCDCRARPLWAWLQKFRGSSSEVPCSLPQRLAGRDLKRLAANDLQGCAVATGPYHPIWTGRATDEEPLGLPKCCQPDAADKASVLEPGRPASAGNALKGRVPPGDSPPGNGSGPRHINDSPFGTLPGSAEPPLTAVRPEGSEPPGFPTSGPRRRPGCSRKNRTRSHCRLGQAGSGGGGTGDSEGS

These molecules were tested on NgR ligands (assay: Binding of alanine substituted NgR mutants to NgR ligands, summary categories). Conditions: AP-Nogo66, AP-B4C, AP-B4C66, AP-Lingo-1, AP-OMgp and AP-MAG; compared to wild type NgR.
Text: (§1) To better define how multiple ligands bind to the NgR protein, we examined a series of Ala-substituted NgR for ligand binding activity. NgR mutagenesis was done using the Quick Change Multisite Directed Mutagenesis Kit (Stratagene catalog #200514). Human NgR1 was used as a template. Ala substitutions were generated for each of the charged residues predicted to be solvent accessible at the surface of the ligand binding domain of NgR (Barton, W. A., et al., Embo J. 22:3291-3302 (2003); He, X. L., et al., Neuron 38:177-185 (2003)). We generated mutants in which 1-8 surface residues localized within 5 A of one another were Ala-substituted. Because of the coiling nature of the LRR structure, as residues juxtaposed on the protein surface are commonly separated by approximately 25 residues in the primary structure. In addition to mutations in specific charged surface patches, other mutations were targeted to glycosylation sites and to regions predicted to be involved in ligand binding based on the NgR structure (Barton, W. A., et al., Embo J. 22:3291-3302 (2003); He, X. L., et al., Neuron 38:177-185 (2003)). In addition, a variant corresponding to a human polymorphism was examined (D259N). None of the mutations altered the Leu residues that define the LRR structure itself or the Cys residues critical in the amino and carboxyl terminal capping domains. The vast majority of such Ala surface substitution mutants were expressed as immunoreactive polypeptides with a molecular weight and an expression level indistinguishable from wild type NgR (FIG. 4C and data not shown).
(§2) This collection of 74 individual NgR mutants was interrogated for AP-Nogo-66, AP-Amino-Nogo-B4C, AP-MAG, AP-OMgp, and AP-Lingo-1 binding. AP-Nogo66, AP-MAG, AP-OMGP and AP-Lingo-1 constructs are described elsewhere (Fournier, A. E., et al., Nature 409:341-346 (2001); Liu, B. P., et al., Science 297:1190-1193 (2002); Mi, S., et al., Nat. Neurosci. 7:221-228 (2004); Wang, K. C., et al., Nature 417:941-944 (2002b)). The properties of the NgR mutants fell into one of three major categories (Table II and FIG. 5). A number of Ala substituted NgR polypeptides bound all of the ligands at wild type levels. […] In addition, a significant extent of the concave surface is dispensable for ligand binding.
Alanine substituted NgR mutants were tested for their binding to AP-Nogo66, AP-B4C, AP-B4C66, AP-Lingo-1, AP-OMgp and AP-MAG and they fall into three categories: (1) Mutants that lose binding to all NgR ligands. (2) Mutants that still maintain binding to all NgR ligands. […] The D259N mutant is an asparagine substitution to mimic a human polymorphism.

| Molecule | ligand binding category of NgR mutant (Table II) |
| --- | --- |
| B1 | Differential binding |
| B2 | Differential binding |
| B3 | Differential binding |
| B4 | Differential binding |
| B5 | Differential binding |
| B6 | Differential binding |

Each molecule was assayed on AP-MAG (assay: Binding of AP-MAG to COS-7 cells expressing NgR mutants). Conditions: AP-MAG 30 nM; level of binding compared to wild type NgR.
Parameters: key: ++: WT level; +: weaker than wild type; trace binding; −: no binding
Experimental: (§3) FIG. 4A. […] Binding of AP or AP fused NgR ligands to COS-7 cells expressing different NgR mutants as indicated. The concentrations of ligands applied were: AP, 30 nM; AP-Ng66, 5 nM; AP-Ng33, 10 nM; AP-B4C, 10 nM; AP-B4C66, 0.5 nM; AP-Lingo-1, 10 nM; AP-OMGP, 10 nM; AP-MAG, 30 nM. These concentrations are close to the binding Kd of these proteins to NgR so that any […] is reflected linearly in staining.
(§4) FIG. 4B. AP binding of NgR ligands to NgR mutants expressed as percentage of wild type NgR. AP after incubation with AP fused ligands, AP bound to COS-7 cells expressing NgR or NgR mutants were stained and measured.
as §1, §2
(§5) Binding of Alanine substituted NgR mutants to NgR ligands were compared to wild type NgR and the levels of binding were categorized as ++ (WT level), + (weaker than wild type), tr (trace binding), − (no binding), N/A (not determined). NgR mutant proteins were also subjected to SDS-PAGE and probed by anti-NgR antibodies. Mutants with expression level similar to WT NgR were labeled as “y”.

| Molecule | MAG |
| --- | --- |
| B1 | − |
| B2 | tr |
| B3 | tr |
| B4 | − |
| B5 | − |
| B7 | ++ |

These molecules were tested on AP-OMgp (assay: Binding of AP-OMgp to COS-7 cells expressing NgR mutants). Conditions: AP-OMGP 10 nM; level of binding compared to wild type NgR.
Parameters: key: ++: WT level; +: weaker than wild type; trace binding; −: no binding
Experimental: as §3, §4, §1, §2, §5

| Molecule | OMgp |
| --- | --- |
| B1 | + |
| B2 | + |
| B3 | tr |
| B4 | − |
| B5 | tr |
| B6 | ++ |
| B7 | ++ |

These molecules were tested against T1, AP-B4C (assay: Binding of AP-B4C to COS-7 cells expressing NgR mutants). Conditions: AP-B4C 10 nM; level of binding compared to wild type NgR.
Parameters: key: ++: WT level; +: weaker than wild type; trace binding; −: no binding
Experimental: as §3, §4, §1, §2, §5

| Molecule | B4C |
| --- | --- |
| B1 | ++ |
| B2 | ++ |
| B3 | + |
| B4 | + |
| B5 | ++ |
| B6 | ++ |
| B7 | ++ |

What follows are molecules tested on AP-B4C66 (assay: Binding of AP-B4C66 to COS-7 cells expressing NgR mutants). Conditions: AP-B4C66 0.5 nM; level of binding compared to wild type NgR.
Parameters: key: ++: WT level; +: weaker than wild type; trace binding; −: no binding
Experimental: as §3, §4, §1, §2, §5

| Molecule | B4C-66 |
| --- | --- |
| B1 | ++ |
| B2 | ++ |
| B3 | + |
| B4 | + |
| B5 | ++ |
| B6 | ++ |
| B7 | ++ |

What follows are molecules tested against T2, AP-Lingo-1 (assay: Binding of AP-Lingo-1 to COS-7 cells expressing NgR mutants). Conditions: AP-Lingo-1 10 nM; level of binding compared to wild type NgR.
Parameters: key: ++: WT level; +: weaker than wild type; trace binding; −: no binding
Experimental: as §3, §4, §1, §2, §5

| Molecule | Lingo-1 |
| --- | --- |
| B1 | ++ |
| B2 | tr |
| B3 | − |
| B4 | − |
| B5 | tr |
| B6 | tr |
| B7 | ++ |

These molecules were tested against T3, AP-Nogo66 (assay: Binding of AP-Nogo66 to COS-7 cells expressing NgR mutants). Conditions: AP-Ng66 5 nM; level of binding compared to wild type NgR.
Parameters: key: ++: WT level; +: weaker than wild type; trace binding; −: no binding
Experimental: as §3, §4, §1, §2, §5

| Molecule | Ng66 |
| --- | --- |
| B1 | ++ |
| B2 | + |
| B3 | + |
| B4 | + |
| B5 | ++ |
| B6 | ++ |
| B7 | ++ |
